Patent US20210171947A1 (PAIRWISE PLANTS SERVICES, published 2021)

Biological target: 4xSH3lig::Cas12a (SEQ ID NO: 187)
Test: cell-based or functional assay

B1: VirD2::SH3dom (SEQ ID NO: 186) (other)
chain: MPDRAQVIIRIVPGGGTKTLQQIINQLEYLSRKGRLELQRSARHLDIPLPPDQIHELARSWVQETGTYDESQPDEERQQELTTHIIVSFPAGTSQVAAYAASREWAAEMFGSGAGGGRYNYLTAFHIDRDHPHLHVVVNRRELLGHGWLKISRRHPQLNYDALRIKMAEISLRHGIALDASRRAERGITERPITYAQYRRLEREQARQIRFEDADLEQSSPQGDHPEFSQPFDTSPFEASAGGPEDMPRPNNRQNESQVHLQEPAGVSNEAGVLVRVALETERLAQPFVSETILADDIGSGSSRVAEGRVESANRTPDIPRAATEAATHTTHDRQRRAKRPHDDDGGPSGAKRVTLEGIAVGPQANAGEQDGSSGGSSGGSMSGSKKRRIKQDAEYVRALFDFNGNDEEDLPFKKGDILRIRDKPEEQWWNAEDSEGKRGMIPVPYVEKYSGSGGSSGGSSGPLVRQAGTSRPSPPTATTRASTATDSLSATAHLQQRRGVLSKRPREDDDGEPSERKRERDERSKDGRGGNRR
increase of green shoots over the negative control, EF1α site: ~3 fold
increase of green shoots over the negative control, polyubiquitin site: ~2 fold
